Reference: patent US20260184777A1 (BEIJING SUNGEN BIOMEDICAL TECHNOLOGY, published 2026)
Positions count from the first letter of the chain named.

B1: Anti-S100A8/A9 monoclonal antibody (antibody, human IgG4 S228P, lambda, V domains shown)
VH: not shown
VL: SYELTQPPSVSVAPGQTARITCSGDALGDKYASWYQQKPGQAPVLVIYEDSKRPSGIPERFSGSNSGNTATLTISGTQAEDEADYYCQSNDADSVWVFGGGTKLTVLG
notes: also called CM-1; parental antibody
B2: CM-28 (antibody, human IgG4 S228P, lambda, V domains shown)
VH: not shown
VL: B1 VL with D50H
B3: CM-32 (antibody, human IgG4 S228P, lambda, V domains shown)
VH: not shown
VL: B1 VL with K52H
B4: CM-34 (antibody, human IgG4 S228P, lambda, V domains shown)
VH: not shown
VL: B1 VL with K52P
B5: CM-30 (antibody, human IgG4 S228P, lambda, V domains shown)
VH: not shown
VL: B1 VL with S51A
B6: CM-38 (antibody, human IgG4 S228P, lambda, V domains shown)
VH: not shown
VL: B1 VL with A92I
B7: CM-39 (antibody, human IgG4 S228P, lambda, V domains shown)
VH: not shown
VL: B1 VL with S94A
B8: CM-31 (antibody, human IgG4 S228P, lambda, V domains shown)
VH: not shown
VL: B1 VL with S51H
B9: CM-33 (antibody, human IgG4 S228P, lambda, V domains shown)
VH: not shown
VL: B1 VL with K52R
B10: CM-37 (antibody, human IgG4 S228P, lambda, V domains shown)
VH: not shown
VL: B1 VL with A92L
B11: CM-27 (antibody, human IgG4 S228P, lambda, V domains shown)
VH: not shown
VL: B1 VL with E49Q
B12: CM-29 (antibody, human IgG4 S228P, lambda, V domains shown)
VH: not shown
VL: B1 VL with D50Q
B13: CM-35 (antibody, human IgG4 S228P, lambda, V domains shown)
VH: not shown
VL: B1 VL with Q88D
B14: CM-36 (antibody, human IgG4 S228P, lambda, V domains shown)
VH: not shown
VL: B1 VL with A92V

Experiments:
S100A1 = biological target: T1, S100A1 (human, UniProt P23297 1-94)
T1 sequence (looked up): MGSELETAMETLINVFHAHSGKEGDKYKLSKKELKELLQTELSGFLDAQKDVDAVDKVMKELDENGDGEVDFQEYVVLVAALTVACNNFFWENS

plague = plague (UniProt P26948 22-170)
[1] = biological target: monkey S100A8/A9 heterodimeric antigen (cS100A8/A9) (monkey)
[2] = biological target: T2, human S100A8/A9 heterodimeric antigen, His-tagged (hS100A8/A9-His) (human, UniProt P05109 1-93; P06702 1-114)
T2 sequence 1: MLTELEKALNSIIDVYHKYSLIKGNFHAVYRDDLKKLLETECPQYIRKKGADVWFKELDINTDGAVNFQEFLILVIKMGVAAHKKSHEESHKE
T2 sequence 2: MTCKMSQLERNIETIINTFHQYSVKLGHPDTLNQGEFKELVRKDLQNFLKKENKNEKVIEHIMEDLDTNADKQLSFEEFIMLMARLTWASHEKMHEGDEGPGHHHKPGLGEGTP

[3] = biological target: T2, human S100A8/A9 heterodimeric antigen, …; experiment: cell-based or functional assay

Binder | IC50, inhibition of IL-6 release from hS100A8/A9-activated human PBMCs [3] [µg/mL] | also measured
B1 |  | binding result (S100A1): no binding (tested: 20 µg/mL); binding result (plague): no binding (tested: 20 µg/mL); Kd [1]: 22.8 nM; Kd [2]: 8.95 nM
B2 | 1.74 | 
B3 | 0.536 | 
B4 | 1.22 | 
B5 | 0.434 | 
B6 | 0.084 | 
B7 | 0.452 | 
B8 | 0.48 | 
B9 | 0.452 | 
B10 | 0.335 | 
B11 | 0.253 | 
B12 | 2 | 
B13 | 0.655 | 
B14 | 0.393 | 
